Laboratory results reported in article PMC11582362.

B1: full length ADAR1 p110, wild type (FLAG-tagged and HA-tagged copies) [human] / full length ADAR1 p110, wild type (FLAG-tagged and HA-tagged copies) [human] (parent)
chain 1: MAEIKEKICDYLFNVSDSSALNLAKNIGLTKARDINAVLIDMERQGDVYRQGTTPPIWHLTDKKRERMQIKRNTNSVPETAPAAIPETKRNAEFLTCNIPTSNASNNMVTTEKVENGQEPVIKLENRQEARPEPARLKPPVHYNGPSKAGYVDFENGQWATDDIPDDLNSIRAAPGEFRAIMEMPSFYSHGLPRCSPYKKLTECQLKNPISGLLEYAQFASQTCEFNMIEQSGPPHEPRFKFQVVINGREFPPAEAGSKKVAKQDAAMKAMTILLEEAKAKDSGKSEESSHYSTEKESEKTAESQTPTPSATSFFSGKSPVTTLLECMHKLGNSCEFRLLSKEGPAHEPKFQYCVAVGAQTFPSVSAPSKKVAKQMAAEEAMKALHGEATNSMASDNQPEGMISESLDNLESMMPNKVRKIGELVRYLNTNPVGGLLEYARSHGFAAEFKLVDQSGPPHEPKFVYQAKVGGRWFPAVCAHSKKQGKQEAADAALRVLIGENEKAERMGFTEVTPVTGASLRRTMLLLSRSPEAQPKTLPLTGSTFHDQIAMLSHRCFNTLTNSFQPSLLGRKILAAIIMKKDSEDMGVVVSLGTGNRCVKGDSLSLKGETVNDCHAEIISRRGFIRFLYSELMKYNSQTAKDSIFEPAKGGEKLQIKKTVSFHLYISTAPCGDGALFDKSCSDRAMESTESRHYPVFENPKQGKLRTKVENGEGTIPVESSDIVPTWDGIRLGERLRTMSCSDKILRWNVLGLQGALLTHFLQPIYLKSVTLGYLFSQGHLTRAICCRVTRDGSAFEDGLRHPFIVNHPKVGRVSIYDSKRQSGKTKETSVNWCLADGYDLEILDGTRGTVDGPRNELSRVSKKNIFLLFKKLCSFRYRRDLLRLSYGEAKKAARDYETAKNYFKKGLKDMGYGNWISKPQEEKNFYLCPV
chain 2: B1 chain 1

Variants of: B1
Assay: co-immunoprecipitation (anti-FLAG IP, anti-HA western blot, bands quantified with ImageJ)
Conditions: HEK293T cells, in the presence of RNases, n = 3, parent: 70, read off a plot

response [%] | Variant
11 | chain 1 V452A D453Q W473V C478S
